Assay results: publication PMC11536930 (Nature structural & molecular biology, 2024)
Values belong to the binder of their own block, whether it stands above or below them.

Assays:
[1] = molecular target: rat GluA2 flip(Q) isoform (unedited homotetrameric AMPA receptor), FLAG-tagged (rat, UniProt P19491-2 22-883); assay: cryo-EM structure
cryo-EM structure = molecular target: the molecule itself; assay: cryo-EM structure

stoichiometry N [1]: 4 γ2(KKEE) per A2iQ tetramer
B1: rat TARPγ2 (stargazin) K52E/K53E (KKEE) mutant, 1D4-tagged (natural protein)
chain: MGLFDRGVQMLLTTVGAFAAFSLMTIAVGTDYWLYSRGVCKTKSVSENETSEENEEVMTHSGLWRTCCLEGNFKGLCKQIDHFPEDADYEADTAEYFLRAVRASSIFPILSVILLFMGGLCIAASEFYKTRHNIILSAGIFFVSAGLSNIIGIIVYISANAGDPSKSDSKKNSYSYGWSFYFGALSFIIAEMVGVLAVHMFIDRHKQLRATARATDYLQASAITRIPSYRYRYQRRSRSSSRSTEPSHSRDASPVGVKGFNTLPSTEISMYTLSRDPLKAATTPTATYNSDRDNSFLQVHNCIQKDSKDSLHANTANRRTTPV

B2: rat GluA2 flip(Q) isoform N619K mutant, FLAG-tagged (receptor, UniProt P19491-2 22-883, looked up)
chain: VSSNSIQIGGLFPRGADQEYSAFRVGMVQFSTSEFRLTPHIDNLEVANSFAVTNAFCSQFSRGVYAIFGFYDKKSVNTITSFCGTLHVSFITPSFPTDGTHPFVIQMRPDLKGALLSLIEYYQWDKFAYLYDSDRGLSTLQAVLDSAAEKKWQVTAINVGNINNDKKDETYRSLFQDLELKKERRVILDCERDKVNDIVDQVITIGKHVKGYHYIIANLGFTDGDLLKIQFGGANVSGFQIVDYDDSLVSKFIERWSTLEEKEYPGAHTATIKYTSALTYDAVQVMTEAFRNLRKQRIEISRRGNAGDCLANPAVPWGQGVEIERALKQVQVEGLSGNIKFDQNGKRINYTINIMELKTNGPRKIGYWSEVDKMVVTLTELPSGNDTSGLENKTVVVTTILESPYVMMKKNHEMLEGNERYEGYCVDLAAEIAKHCGFKYKLTIVGDGKYGARDADTKIWNGMVGELVYGKADIAIAPLTITLVREEVIDFSKPFMSLGISIMIKKPQKSKPGVFSFLDPLAYEIWMCIVFAYIGVSVVLFLVSRFSPYEWHTEEFEDGRETQSSESTNEFGIFNSLWFSLGAFMQQGCDISPRSLSGRIVGGVWWFFTLIIISSYTAKLAAFLTVERMVSPIESAEDLSKQTEIAYGTLDSGSTKEFFRRSKIAVFDKMWTYMRSAEPSVFVRTTAEGVARVRKSKGKYAYLLESTMNEYIEQRKPCDTMKVGGNLDSKGYGIATPKGSSLGTPVNLAVLKLSEQGVLDKLKNKWWYDKGECGAKDSGSKEKTSALSLSNVAGVFYILVGGLGLAMLVALIEFCYKSRAEAKRMKVAKNPQNINPSSSQNSQNFATYKEGYNVYGIESVKI
binding result (cryo-EM structure): binds
